From patent publication US8859223

Key:
EVNF-EVEF = target: T1, EVNF-EVEF
T1 chain: EVNFEVEF

EIDL-MVLD = target: T2, EIDL-MVLD
T2 chain: EIDLMVLD

APSL-DAHF = target: T3, APSL-DAHF
T3 chain: APSLDAHF

ASNL-DAHF = target: T4, ASNL-DAHF
T4 chain: ASNLDAHF

EVNL-DAHF = target: T5, EVNL-DAHF
T5 chain: EVNLDAHF

DETL-DAHF = target: T6, DETL-DAHF
T6 chain: DETLDAHF

EVNL-SSHD = target: T7, EVNL-SSHD
T7 chain: EVNLSSHD

EIDL-SSHD = target: T8, EIDL-SSHD
T8 chain: EIDLSSHD

EVNL-DAEF = target: T9, EVNL-DAEF
T9 chain: EVNLDAEF

EI(Thi)(Thi)-(Nva)AHF = target: T10, EI(Thi)(Thi)-(Nva)AHF
T10 chain: EIXXXAHF

B1: BACE enzyme (beta-secretase) (protein)
chain: ETDEEPEEPGRRGSFVEMVDNLRGKSGQGYYVEMTVGSPPQTLNILVDTGSSNFAVGAAPHPFLHRYYQRQLSSTYRDLRKGVYVPYTQGKWEGELGTDLVSIPHGPNVTVRANIAAITESDKFFINGSNWEGILGLAYAEIARPDDSLEPFFDSLVKQTHVPNLFSLQLCGAGFPLNQSEVLASVGGSMIIGGIDHSLYTGSLWYTPIRREWYYEVIIVRVEINGQDLKMDCKEYNYDKSIVDSGTTNLRLPKKVFEAAVKSIKAASSTEKFPDGFWLGEQLVCWQAGTTPWNIFPVISLYLMGEVTNQSFRITILPQQYLRPVEDVATSQDDCYKFAISQSSTGTVMGAVIMEGFYVVFDRARKRIGFAVSACHVHDEFRTAAVEGPFVTLDMEDCGYNIPQTDESTLMTIAY
- Percent Cleavage after 10 hr Incubation with BACE (EVNF-EVEF): 85%
- Percent Cleavage after 10 hr Incubation with BACE (EIDL-MVLD): 20%
- Percent Cleavage after 10 hr Incubation with BACE (APSL-DAHF): 0.5%
- Percent Cleavage after 10 hr Incubation with BACE (ASNL-DAHF): Not Detected
- Percent Cleavage after 10 hr Incubation with BACE (EVNL-DAHF): 50%
- Percent Cleavage after 10 hr Incubation with BACE (DETL-DAHF): 1%
- Percent Cleavage after 10 hr Incubation with BACE (EVNL-SSHD): 3.5%
- Percent Cleavage after 10 hr Incubation with BACE (EIDL-SSHD): 5%
- Percent Cleavage after 10 hr Incubation with BACE (EVNL-DAEF): 50%
- Percent Cleavage after 10 hr Incubation with BACE (EI(Thi)(Thi)-(Nva)AHF): 25%
